Laboratory results from PMC8769072, “Proteome‐scale mapping of binding sites in the unstructured regions of the human proteome” (Molecular Systems Biology, 2022).
Values belong to the binder of their own block, whether it stands above or below them.

How the values were obtained:
Assay in all cases: fluorescence polarisation; competition: unlabelled peptide in serial dilution displaces a FITC-labelled probe peptide from the bait domain (master mix with protein at four times the KD of the probe, 10 nM probe, 2 mM DTT); 50 mM KPO4 or NaPO4 pH 7.5; triplicates; probe for KEAP1 Kelch: FITC-NFE2L1 228-243, other probes in Dataset EV6
Conditions in all cases: both partners purified
[1] = biological target: KEAP1 Kelch, MBP‐tagged domain, for affinity measurements (human)
KEAP1 Kelch, MBP‐tagged domain, for affinity measurements (human), sequence (chain, as listed by the source): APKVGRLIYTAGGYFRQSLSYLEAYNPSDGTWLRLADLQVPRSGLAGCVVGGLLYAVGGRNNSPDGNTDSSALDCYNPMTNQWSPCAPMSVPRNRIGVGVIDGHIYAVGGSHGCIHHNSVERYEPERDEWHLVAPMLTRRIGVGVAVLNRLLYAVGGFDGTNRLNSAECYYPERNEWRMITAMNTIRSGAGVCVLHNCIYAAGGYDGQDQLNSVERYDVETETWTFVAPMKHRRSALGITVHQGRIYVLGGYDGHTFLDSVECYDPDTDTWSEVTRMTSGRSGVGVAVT

[2] = biological target: T1, TLN1 PTB, tag cleaved, for affinity measurements (human)
T1 chain: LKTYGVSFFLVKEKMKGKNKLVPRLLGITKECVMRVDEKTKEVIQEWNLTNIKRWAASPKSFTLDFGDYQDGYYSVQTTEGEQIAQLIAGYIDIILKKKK

[3] = biological target: T2, 14‐3‐3 SFN, tag cleaved, for affinity measurements (human)
T2 chain: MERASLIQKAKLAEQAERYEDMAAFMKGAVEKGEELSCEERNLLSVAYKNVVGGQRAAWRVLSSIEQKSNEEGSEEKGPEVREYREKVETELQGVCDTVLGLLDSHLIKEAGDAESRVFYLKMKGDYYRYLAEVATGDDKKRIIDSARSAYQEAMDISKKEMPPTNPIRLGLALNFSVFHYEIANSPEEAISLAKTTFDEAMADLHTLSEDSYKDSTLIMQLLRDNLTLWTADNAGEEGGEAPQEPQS

fold loss of affinity against the wild-type peptide [1]: 1000 fold
Binder: Ac-YDEKTGEFLPIQPAQH-NH2 [NFE2L2 E79K peptide, synthetic]

Ki [2]: 500 µM
B1: ITB3_(763–778) peptide from integrin beta‐3, synthetic (peptide)
peptide: AKWDTANNPLYKEATS
notes: integrin beta-3, human, residues 763-778; source: synthetic peptide, bought: GeneCust

Ki [3]: 355 µM
B2: MAP1A_(1836–1851) peptide, synthetic (peptide)
peptide: PSWLADIPPWVPKDRP
notes: microtubule-associated protein 1A, human, residues 1836-1851; source: synthetic peptide, bought: GeneCust

fold loss of affinity against the wild-type peptide [1]: 1000 fold
Binder: Ac-YDEEKGEFLPIQPAQH-NH2 [NFE2L2 T80K peptide, synthetic]

Ki [1]: 1 µM
B3: PTTG1_(4–19) peptide from securin, synthetic (peptide, UniProt O95997 4-19, looked up)
peptide: LIYVDKENGEPGTRVV
notes: securin, human, residues 4-19 (NGE containing); source: synthetic peptide, bought: GeneCust
